Legend:
[1] = system: left ventricle of male Sprague/Dawley (SD) rats; assay: Cardiac gene expression (real-time RT-PCR) in rats treated with fluprostenol and/or IFN-γ; type: in vivo, rat; conditions: SKA, SRCA, COL I, ANF; FIG. 6
Source text: FIGS. 6A–6D Bargraphs showing the effect of fluprostenol (FLUP) and IFN-γ on: A Skeletal actin (SKA); B Sarcoplasmic reticulum calcium ATPase (SRCA); C Collagen I (COL I); D Atrial natriuretic factor (ANF) expression. Expression levels are normalized to glyceraldehyde-3-phosphate dehydrogenase (GAPDH) message. VEH is vehicle. There were 7 animals per group and the data are presented as the mean±SEM. P<0.05 vs VEH group.
RNA preparation Total RNA was isolated using RNeasy Maxi Columns (Qïägen) according to the manufacturer's instructions.
RT-PCR Real-time RT-PCR (TaqMan) technology was used to compare the gene expression between the various treatment groups. An oligonucleotide probe containing a fluorescent reporter dye, […], at the 3′-end was designed to hybridize to the amplicon defined by two PCR primers. A 3′-blocking phosphate prevents extension of the probe. The reporter dye is released from the probe by the 5′ exonuclease activity of Taq polymerase during the extension phase of PCR reaction. […] The threshold cycle number (Ct), defined as the point where the reporter fluorescence reaches a value greater than 10 times the standard deviation of the baseline, is […] to the amount of amplicon produced from the sample. Since the fluorescence is detected during the exponential phase of the amplification, none of the reaction components are limiting. In each experiment, a control is analyzed that lacks the RNA template to monitor for contamination, and another control is included where the RT step is omitted to eliminate amplification of possible contaminating DNA as the source of the signal. Reactions are optimized to give the greatest fluorescence signal and smallest Ct by titration of magnesium and primer concentrations, and the product is run on an agarose gel to verify the presence of a single band at the predicted molecular weight. […]
Quantitation of the TaqMan results was performed as described by Heid et al., Genome Res. 6:986–994 (1996), with modifications. […]

[2] = system: male Sprague/Dawley (SD) rats; assay: Cardiac hypertrophy induced by fluprostenol in vivo: body and organ weights; design: species or system rat
Source text: This pharmacological model tests the ability of IFN-γ to inhibit cardiac hypertrophy induced in rats (e.g. male Wistar or Sprague-Dawley) by subcutaneous injection of fluprostenol (an agonist analog of PGF2α). It is known that rats with pathologic cardiac hypertrophy induced by myocardial infarction have chronically elevated levels of extractable PGF2α in their myocardium. Lai et al, Am. J. Physiol. (Heart Circ. Physiol.) 271:H2197–H2208 (1996). Accordingly, factors that can inhibit the effects of fluprostenol on myocardial growth in vivo are potentially useful for treating cardiac hypertrophy. The effects of IFN-γ on cardiac hypertrophy are determined by measuring the weight of heart, ventricles, and left ventricle (normalized by body weight) relative to fluprostenol-treated rats not receiving IFN-γ. A detailed description of this assay is provided in the examples.
Animals All experimental procedures conformed to the guiding principles of the American Physiology Society, and were approved by Genentech's Institutional Animal Care and Use Committee. The animals used in this study were male Sprague/Dawley (SD) rats (8 weeks of age, Charles River Breeding Laboratories, Inc.). The animals were acclimated to the facility for at least one week before experiments, fed a pelleted rat chow and water ad libitum, and housed in a light and temperature controlled room.
Administration of fluprostenol and/or IFN-γ Rats received subcutaneous injection of fluprostenol (Cayman Chemical, Ann Arbor, Mich.) at 0.15 mg/kg, recombinant mouse IFN-γ (Genentech, Inc., South San Francisco, Calif.) at 0.08 mg/kg, combination of fluprostenol and IFN-γ, or saline vehicle, twice a day for 14 days. In the IFN-γ and fluprostenol+IFN-γ groups, animals were pretreated with IFN-γ for one day. Body weight was measured before and after treatment. A previous study has shown that the dose of fluprostenol used here is the lowest dose which produces a significant cardiac hypertrophy in rats. Lai et al., supra.
Measurement of organ weights Under anesthesia with ketamine/xylazine, the heart, kidney, and spleen were removed, dissected and weighed. The left ventricle was stored at […] for evaluation of gene expression.
Statistical analyisis Results are expressed as mean±SEM. One way analysis of variance (ANOVA) was performed to assess differences in parameters between groups. Significant differences were then subjected to post hoc analysis using Newman-Keuls method; P<0.05 was considered significant.

[3] = IFN-γ 0.08 mg/kg s.c. twice a day, rats
[4] = s.c. twice a day for 14 days, fluprostenol 0.15 mg/kg, IFN-γ 0.08 mg/kg, mean ± SEM

Substance: IFN-γ: recombinant mouse IFN-γ (Genentech, Inc., South San Francisco, Calif., or Genzyme, Cambridge, Mass.)
- Inhibition of alterations in cardiac gene expression associated with fluprostenol induced hypertrophy [1]: inhibited all but the atrial natriuretic factor response
- Ratio of heart, ventricular, and left ventricular weights to body weight (FIG. 4) ([2]; 14 days, fluprostenol and IFN-γ alone vs vehicle, fluprostenol+IFN-γ vs fluprostenol group): did not significantly alter
- Effect on body weight, pilot study [2, 3]: little effects on body weight
- Effect on fluprostenol-induced cardiac hypertrophy, pilot study [2, 3]: inhibited fluprostenol-induced cardiac hypertrophy
- BWO, basal levels of body weight ([2]; before treatment, mean ± SEM): 292.5 ± 3.2 g
- BW, body weight post treatment [2, 4]: 380.8 ± 6.1 g
- HW, heart weight [2, 4]: .956 ± .029 g
- KW, kidney weight [2, 4]: 1.327 ± .035 g
- KW/BW, kidney weight to body weight [2, 4]: 3.483 ± .069 g/kg
- LVW, left ventricular weight [2, 4]: .696 ± .023 g
- SW, spleen weight [2, 4]: .924 ± .068 g
- SW/BW, spleen weight to body weight [2, 4]: 2.415 ± .149 g/kg
- VW, ventricular weight [2, 4]: .914 ± .029 g
- ΔBW, BW-BWO [2, 4]: 88.3 ± 5.0 g

Source: US6989364B1, “Methods for treating cardiac hypertrophy by administering IFN-γ” (Genentech, Inc., priority 1998, dated 2006)
